Measurements published in patent publication US20210261667A1 (SHANGHAI NOVAMAB BIOPHARMACEUTICALS, published 2021).

Tests used:
Test in all cases: ELISA on coated antigen, A405 nm
[1] = target: T1, PD-L1 (mouse) (mouse, UniProt Q9EP73 19-238, limits assumed)
T1 construct: also called mouse PD-L1; murine PD-L1

[2] = target: T2, human PD-L2 (human, UniProt Q9BQ51 20-220, limits assumed)
T2 sequence (looked up): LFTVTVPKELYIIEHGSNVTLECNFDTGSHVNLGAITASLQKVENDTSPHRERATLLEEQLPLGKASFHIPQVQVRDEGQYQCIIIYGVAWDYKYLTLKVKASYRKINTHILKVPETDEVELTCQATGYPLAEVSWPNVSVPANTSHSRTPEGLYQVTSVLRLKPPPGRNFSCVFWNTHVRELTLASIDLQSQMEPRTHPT

[3] = target: T3, human B7H3 (human, UniProt Q5ZPR3-2 29-245, limits assumed)
T3 sequence (looked up): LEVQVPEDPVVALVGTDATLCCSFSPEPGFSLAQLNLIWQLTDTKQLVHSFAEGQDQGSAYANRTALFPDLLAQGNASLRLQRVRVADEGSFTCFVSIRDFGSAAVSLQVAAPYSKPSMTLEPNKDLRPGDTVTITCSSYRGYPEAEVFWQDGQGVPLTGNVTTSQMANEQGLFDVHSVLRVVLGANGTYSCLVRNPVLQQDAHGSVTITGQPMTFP

[4] = target: T4, B7H4 (human, UniProt Q7Z7D3 29-258, limits assumed)
T4 sequence (looked up): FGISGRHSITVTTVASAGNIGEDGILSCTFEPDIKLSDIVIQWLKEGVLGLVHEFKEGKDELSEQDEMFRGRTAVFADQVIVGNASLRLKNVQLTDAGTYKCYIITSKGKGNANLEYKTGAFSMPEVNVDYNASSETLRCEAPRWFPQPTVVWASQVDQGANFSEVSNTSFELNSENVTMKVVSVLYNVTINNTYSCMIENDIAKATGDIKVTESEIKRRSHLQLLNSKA

Measured: binding result

T1 sequence (Q9EP73 19-238 limits assumed): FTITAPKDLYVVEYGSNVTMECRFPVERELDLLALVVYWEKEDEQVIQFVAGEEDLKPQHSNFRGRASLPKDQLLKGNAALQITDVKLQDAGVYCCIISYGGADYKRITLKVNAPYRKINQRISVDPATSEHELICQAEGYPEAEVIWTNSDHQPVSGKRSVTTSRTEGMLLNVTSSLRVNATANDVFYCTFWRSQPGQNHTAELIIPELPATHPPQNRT

B1: bivalent anti-PD-L1 single-domain antibody before humanization (Fc fusion)
chain: QVQLQESGGGSVQAGGSLRLSCTASGYNLSPSCMGWFRQAPGKEREGVAFTDADGSTRYADSVKARFTISRDNAENTLYLQMNSLKPEDTAMYYCAADFFSYCSVVFRASARDKYRGQGTQVTVSS
notes: also called bivalent PD-L1 single-domain antibody before humanization; bivalent single-domain antibody before humanization; not shown: IgG1 Fc of vector pFUSE-IgG1
no binding: [1] | [2] | [3] | [4]
